Measurements taken from paper doi:10.1101/2025.08.24.672003, “Structural characterization of MAM01 and other cost-effective engineered monoclonal antibodies for malaria prevention” (bioRxiv, 2025).
Where a chain is given by its changes, count along the chain named. Ends that are not written are not given here.

How the values were obtained:
[1] = molecular target: T1, PfCSP N-terminal junctional region peptide, biotinylated (KQPADGNPDPNANPNV) (Plasmodium falciparum, also: biotin label, end not given here); assay: BLI
T1 peptide: KQPADGNPDPNANPNV

[2] = molecular target: T2, PfCSP junctional region peptide, biotinylated (NPDPNANPNVDPNANP) (Plasmodium falciparum, also: biotin label, end not given here); assay: BLI
T2 peptide: NPDPNANPNVDPNANP

[3] = molecular target: T3, PfCSP major repeat region peptide NPNA3, biotinylated (Plasmodium falciparum, also: biotin label, end not given here); assay: BLI
T3 peptide: NPNANPNANPNA

[4] = molecular target: T4, PfCSP minor repeat region peptide, biotinylated (NVDPNANPNVDPNANPNVDP) (Plasmodium falciparum, biotinylated (end not stated)); assay: BLI
T4 peptide: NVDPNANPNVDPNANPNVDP

[5] = molecular target: T5, PfCSP N-terminal junctional region peptide, biotinylated (KQPADGNPDPNANPNV) (Plasmodium falciparum 3D7, also: biotinylated, end not given here); assay: BLI; biotinylated peptides (10 ug/mL) loaded on streptavidin biosensors; Fabs in solution at 200, 100, 50, 25, 12.5 nM; kinetics buffer 1X PBS, 0.01% BSA, 0.002% Tween 20; 300 s association, 300 s dissociation; Octet Red; 1:1 global fit; conditions: both partners purified
T5 construct: Plasmodium falciparum circumsporozoite protein (PfCSP), N-terminal junctional region; source: synthetic peptide, bought: Innopep Inc
T5 chain: KQPADGNPDPNANPNV

[6] = molecular target: T6, PfCSP junctional region peptide, biotinylated (NPDPNANPNVDPNANP) (Plasmodium falciparum 3D7, also: biotinylated, end not given here); assay: as above; conditions: both partners purified
T6 construct: Plasmodium falciparum circumsporozoite protein (PfCSP), junctional region; source: synthetic peptide, bought: Innopep Inc
T6 chain: NPDPNANPNVDPNANP

B1: Fab MS-1805 (engineered AB007088) (Fab, V domains shown)
VH: QVQLVESGGGVVQPGRSLRLSCAASGFTFNTYGMHWVRQAPGKGLEWVAIIWYDGSQKYYADSVQGRFTISRDNHKNTLYLQMNSLRAEDTAVYFCVRVRFSVGPHGSAFDLWGQGTMVTVSS
VL: GVQMTQSPSTLSASVGDRVTLTCRASQSISSWLAWYQQKPGKAPKLLIYDASSLESGVPSRFSGSGSGTEFTLTISSLQPDDFATYYCQQYNSYSFWTFGQGTKVEIK
B1 showed a Kd [1] of 23 nM, a Kd [2] of 20 nM and a Kd [3] of 25 nM. The Kd [4] was 28 nM.

B2: Fab 7088 (antigen-binding fragment of mAb AB007088) (Fab, V domains shown)
VH: B1 VH with T28A, A40T, T69I, Y80S, S85G, T120I
VL: B1 VL
Work on B2 yielded a Kd [1] of 15 nM, a Kd [2] of 16 nM and a Kd [3] of 15 nM. It also gave a Kd [4] of 20 nM.

B3: Fab 224 (antigen-binding fragment of mAb AB000224) (Fab, V domains shown)
VH: EVQLVESGGGLVQPGRSLRLPCTASGFSFGDHAMSWVRQAPGKGLEWVGFIRKTTYGATTHYAAAVRGRFTISRDDSKSIVYLQMNSLKTEDTAVYFCTRVQLDYGPGYQYYGMDVWGQGTTVTVSS
VL: ESVLTQPPSVSGAPGQRVTISCTGMNSNIGAGYDVYWYQQLPGRAPKLLIYGNSNRPSGVPDRFSGSRSGTSASLAITGLQAEDEADYYCQSYDTSLNGWAFGGGTKLTVL
notes: Fab 224 heavy chain (IGHV3-49) is in PDB 6WFY (cited) and PDB 9NOB (apo, deposited here); Fab 224 light chain (IGLV1-40) is in PDB 6WFY (cited) and PDB 9NOB (apo, deposited here); IGHV3-49/IGLV1-40; the expression methods name only the Fab genes of MAM01, 7088 and MS-1805, not Fab 224
B3 showed a Kd [2] of 72 nM, a Kd [3] of 3.5 nM and a Kd [4] of 2.9 nM. B3: no binding (tested: 200 nM) [5].

B4: Fab MAM01 (engineered AB000224) (Fab, V domains shown)
VH: B3 VH with P21S, I80T, T90A, T99A
VL: B3 VL with E1Q, R44T
notes: as the heavy chain of m1 (Fab 224, PDB 6WFY) with the stated framework changes (Kabat numbering); as the light chain of m1 (Fab 224, PDB 6WFY) with the stated changes (Kabat numbering); Fab only; the LS mutations of the Fc are not part of it; also called MS-1797; MAM01 Fab; source: ExpiCHO cells, purified (HiTrap Protein G HP, size exclusion chromatography)
With B4 the Kd [3] was 4.1 nM, the Kd [4] was 3.5 nM and the binding result [5] was “no binding (tested: 200 nM)”. It also gave a Kd [6] of 108 nM.
